{"source": "paper PMC11381358", "about": "“Phosphorylation of the nuclear poly(A) binding protein (PABPN1) during mitosis protects mRNA from hyperadenylation and maintains transcriptome dynamics”", "molecular_target": "T1, His-MBP-PABPN1 WT (human, UniProt Q86U42 1-306)", "T1 sequence": "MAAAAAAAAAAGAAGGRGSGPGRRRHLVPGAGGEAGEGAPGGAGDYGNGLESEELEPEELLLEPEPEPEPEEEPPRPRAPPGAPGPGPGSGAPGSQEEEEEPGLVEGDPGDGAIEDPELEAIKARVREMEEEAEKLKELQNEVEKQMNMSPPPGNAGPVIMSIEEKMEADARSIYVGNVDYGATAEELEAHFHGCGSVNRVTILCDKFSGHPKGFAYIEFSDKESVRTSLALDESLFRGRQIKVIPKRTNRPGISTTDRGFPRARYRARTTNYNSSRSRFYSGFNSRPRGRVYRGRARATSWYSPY", "test": "filter binding; 50 mM Tris-HCl pH 8.0, 100 mM KCl, 5 mM MgCl2, 2 mM EDTA, 10% glycerol, 0.2 mg/ml BSA, 0.01% NP-40, 0.5 mM DTT, 2 U/ul RNase OUT; 500 pM RNA, protein 62.5 nM-4", "settings": "protein: recombinant; tags: N-terminal His-MBP (uncleaved); label: 5'-32P; single strand", "data": [{"binder": "AAAAAAAAAAAAAAAAAAAAAAAAAAAAAA (ssRNA)", "note": "[poly(A)30]", "values": [{"measurement": "binding result", "result": "binds"}]}]}
